Assays:
[1] = biological target: cyclin A/CDK2 complex (UniProt P20248); test: cell-based or functional assay
[2] = biological target: CDK2 kinase complex (cyclin not given) (UniProt P24941); test: cell-based or functional assay

Q: Which results are given for “GST-HPV16-E7(39-98) (from UniProt P03129 39-98)”?
A: activation of cyclinA/CDK2, percent of full length E7 (repeat experiment) [1]: 18%; activation of cyclinA/CDK2, percent of full length GST-HPV 16 E7 [1]: 28.6%

Q: Which results are given for “GST-HPV16 E7 ?24, 26; ?31, 32 (from UniProt P03129 1-98)”?
A: % Control Activation of CDK2, Exp. 1 [2]: 88.2%; % Control Activation of CDK2, Exp. 2 [2]: 95.6%

Q: For “GST-HPV16 E7 ?9-13 (from UniProt P03129 1-8; P03129 14-98)”, which % Control Activation of CDK2 [2] is on record?
A: 90%

Q: How did the activation of cyclinA/CDK2, percent of full length E7 [1] turn out when “GST-HPV16-E7(16-98) (from UniProt P03129 16-98)” was run?
A: 53%

Q: Which results are given for “GST-HPV16 E7 C91→W91 (from UniProt P03129 1-98)”?
A: % Control Activation of CDK2, Exp. 1 [2]: 81.7%; % Control Activation of CDK2, Exp. 2 [2]: 78.7%

Q: With “GST-HPV16-E7(9-98) (from UniProt P03129 9-98)” as the substance, how does the activation of cyclinA/CDK2, percent of full length E7 [1] read?
A: 64%

Q: With “GST-16E7(1-15) (from UniProt P03129 1-15)” as the substance, how does the relative kinase activity compared to full length E7 [2] read?
A: 15%

Q: For “GST-HPV16 E7 ?13-15 (from UniProt P03129 1-12; P03129 16-98)”, which % Control Activation of CDK2 [2] is on record?
A: 76%

Q: “GST-HPV16 E7 ?12; ?24, 26 (from UniProt P03129 1-98)” was tested. Which % Control Activation of CDK2, Exp. 1 [2] did it give?
A: 85.2%

Q: And the % Control Activation of CDK2, Exp. 2 [2]?
A: 93.5%

Q: How did the % Control Activation of CDK2, Exp. 2 [2] turn out when “GST-HPV16 E7 ?24, 26; ?31, 32; ?91 (from UniProt P03129 1-98)” was run?
A: 70.6%

Q: With “GST-HPV16 E7 ?9-13, ?A34-37 (from UniProt P03129 1-8; P03129 14-33; P03129 38-98)” as the substance, how does the % Control Activation of CDK2 [2] read?
A: 72%

Q: With “GST-E7 (20-48) (from UniProt P03129 20-48)” as the substance, how does the induced kinase activity, percent of that by full length E7 [2] read?
A: 33%

Q: With “GST-HPV16 E7 ?22-26, ?31-37 (from UniProt P03129 1-21; P03129 27-30; P03129 38-98)” as the substance, how does the % Control Activation of CDK2 [2] read?
A: 72%

Q: For “GST-16E7(1-27) (from UniProt P03129 1-27)”, which CDK2 activation, percent of that of full length E7 (one experiment) [2] is on record?
A: 28.6%

Q: And the CDK2 activation, percent of that of full length E7 (repeat experiment) [2]?
A: 52%

Q: With “GST-16E7(1-69) (from UniProt P03129 1-69)” as the substance, how does the relative kinase activity compared to activity in the presence of full length E7 [2] read?
A: 82.5%

Q: For “GST-HPV16 E7 ?31-37 (from UniProt P03129 1-30; P03129 38-98)”, which % Control Activation of CDK2 [2] is on record?
A: 80%

Q: With “GST-HPV16 E7 ?22-26 (from UniProt P03129 1-21; P03129 27-98)” as the substance, how does the % Control Activation of CDK2 [2] read?
A: 85%

Q: For “GST-16E7 (16-38) (from UniProt P08515 1-218; P03129 16-38)”, which induced kinase activity, percent of that by full length E7 [2] is on record?
A: 53%

Q: Which relative kinase activity compared to activity in the presence of full length E7 [2] does the source give for “GST-16E7(1-48) (from UniProt P03129 1-48)” here?
A: 73.2%

Q: “GST-HPV16 E7 C24, E26→S24, D26 (from UniProt P03129 1-98)” was tested. Which % Control Activation of CDK2, Exp. 1 [2] did it give?
A: 86.7%

Q: What about the % Control Activation of CDK2, Exp. 2 [2] of the same substance?
A: 81.3%

Q: Which relative kinase activity compared to activity in the presence of full length E7 [2] does the source give for “GST-16E7(1-87) (from UniProt P03129 1-87)” here?
A: 76.7%

Q: Which relative kinase activity compared to activity in the presence of full length E7 [2] does the source give for “GST-16E7(1-38) (from UniProt P03129 1-38)” here?
A: 72%

Q: What does the source list for “GST-HPV16 E7 ?24, 26; ?91 (from UniProt P03129 1-98)”?
A: % Control Activation of CDK2, Exp. 1 [2]: 69.4%; % Control Activation of CDK2, Exp. 2 [2]: 86.4%

Q: For “GST-HPV16 E7 ?34-37 (from UniProt P03129 1-33; P03129 38-98)”, which % Control Activation of CDK2 [2] is on record?
A: 80%

Q: “GST-HPV16 E7 M12→L12 (from UniProt P03129 1-98)” was tested. Which % Control Activation of CDK2, Exp. 1 [2] did it give?
A: 96.7%

Q: How did the % Control Activation of CDK2, Exp. 2 [2] turn out when “GST-HPV16 E7 ?12; ?24, 26; ?31, 32 (from UniProt P03129 1-98)” was run?
A: 83.1%

Q: How did the % Control Activation of CDK2, Exp. 1 [2] turn out when “GST-HPV16 E7 S31, S32→G31, G32 (from UniProt P03129 1-98)” was run?
A: 77.1%

From patent US20010029022A1
